In article doi:10.1101/2023.03.07.531120 (bioRxiv, 2023):
Where no end group is shown, it is not given here. The star is where a group is joined. FITC = O=C1OC2(c3ccc(O)cc3Oc3cc(O)ccc32)c2ccc(NC(=S)*)cc21; Oleoyl = CCCCCCCC/C=C\CCCCCCCC(=O)*

Target: T1, AP2 μ2 subunit (in the mouse AP2 core) (mouse, UniProt P84091 1-435)
T1 sequence: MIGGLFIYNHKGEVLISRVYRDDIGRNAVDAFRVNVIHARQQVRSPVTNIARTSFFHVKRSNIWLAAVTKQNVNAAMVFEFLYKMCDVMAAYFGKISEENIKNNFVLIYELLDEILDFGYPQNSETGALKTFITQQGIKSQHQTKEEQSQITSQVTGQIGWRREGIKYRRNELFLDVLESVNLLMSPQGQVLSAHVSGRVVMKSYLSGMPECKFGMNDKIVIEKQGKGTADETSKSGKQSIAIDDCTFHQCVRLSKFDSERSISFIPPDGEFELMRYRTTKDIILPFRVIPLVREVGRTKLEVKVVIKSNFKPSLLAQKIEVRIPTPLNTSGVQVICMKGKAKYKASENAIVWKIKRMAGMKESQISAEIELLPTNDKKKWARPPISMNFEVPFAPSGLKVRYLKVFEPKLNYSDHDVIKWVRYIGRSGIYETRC
Assay: cryo-EM structure

Oleoyl-SK(FITC)KVTRRPKASDYQRL [Lipidated YxxΦ-cargo peptide of Tgn38 (Oleic acid-S{Lys(FITC)}KVTRRPKASDYQRL)]: binds.
